In the supplement of paper PMC10567573 one finds protein stability index data, which are given here for 29 sequences.

This data set in a line: protein stability index of a GFP-peptide fusion (GPS, HEK-293T) (PSI 1-6); higher = more stable.
[1] abbreviates: treatment: DMSO, c terminus: a fixed tail appended.
Setting [2] is: treatment: MLN4924 1 uM, 8 h, c terminus: a fixed tail appended.
Where [3] appears, read: treatment: DMSO, c terminus: native.
Setting [4] is: treatment: MLN4924 1 uM, 8 h, c terminus: native.

± gives the standard deviation.
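Note: 24-mer peptide tiles fused after GFP, lentivirally expressed, FACS-sorted into six equal bins by GFP/DsRed ratio, decoded by Illumina sequencing, PSI is the read-weighted mean bin number.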

On to CMDQERLRRESTSQKEMDKAETKT [FCHO1], for which the protein stability index runs as follows: under setting [1], 5.15 ± 0.65; under setting [2], 5.21 ± 0.14.
Regarding CPHCGDRTFYDPEPILCPCFMPN [PRAME], the protein stability index reads like this: under setting [3], 3.98 ± 0.25; under setting [4], 3.99 ± 0.48.
For the sequence CPWEPQKQPPWEFLQVLEPGARGL [SPAG8], the protein stability index came out at 3.11 ± 0.24 under setting [1] and 3.36 ± 0.11 under setting [2].
For CQALPYGPGYWMCCHRSQKGFPGC [FBXO34] the same measures were 2.35 ± 0.44 and 2.23 ± 0.32.
As to CRKAKEIRKERKRLKLMQQNPAGE [ATE1], the protein stability index was determined as 4 ± 0.25 under setting [1] and 4.37 ± 0.2 under setting [2].
The matching figures for CSGVACLVKDNPQRSYFLRIFDIK [WASL]: 2.16 ± 0.34 and 2.27 ± 0.7.
The matching figures for CSQGQQLATFSSDWEIQEDSRLMC [CCDC3]: 3.16 ± 0.073 and 3.03 ± 0.55.
Sequence CTLPQLAIAWCLRNEGVSSVLLGA [KCNAB2] registered a protein stability index under setting [1] of 3.1 ± 0.63 and a protein stability index under setting [2] of 2.89 ± 0.36.
For DAERDGVKVPTTLAEYCVKTKAPA [CDC34] the same measures were 5.13 ± 0.067 and 5.02 ± 0.26.
Regarding DALRFTADVRSVLSRNLHQHRLW [CTDNEP1], the protein stability index runs as follows: under setting [3], 2.6 ± 0.48; under setting [4], 2.99 ± 0.26.
As for DDCSSTIVEDPQTKCEYMLNSMPK [ESRRG], the protein stability index amounted to 4.87 ± 0.29 under setting [1] and 4.95 ± 0.22 under setting [2].
For DDFRTKYQTEQSLRQLVESDINSL [KRT33B] the same measures were 4.6 ± 0.2 and 4.39 ± 0.12.
Take DDGTYSQVQCHSYTGYCWCVTPNG [SMOC2]: the protein stability index by setting is: under setting [1], 2.48 ± 0.14; under setting [2], 2.66 ± 0.47.
For DEALAIAALELLPRELFPPLFMAA [PRAME], the protein stability index runs as follows: under setting [1], 2.78 ± 0.21; under setting [2], 2.61 ± 0.55.
For DEALERCQILELLNAELEEKMMQE [CCDC89] the same measures were 5.17 ± 0.41 and 5.34 ± 0.22.
Turning to DEIRWKYHSDTTPKIIESQRPPH [IQUB], the protein stability index came to 4.25 ± 0.36 under setting [3] and 4.09 ± 0.29 under setting [4].
Regarding DERIFSLTRRLAHGEELRVSARSR [HAGHL], the protein stability index under setting [1] amounted to 4.1 ± 0.33 and the protein stability index under setting [2] came to 4.12 ± 0.32.
The matching figures for DFHLSIHSDMAAIVKAMASPESGL [DVL3]: 2.87 ± 0.21 and 2.85 ± 0.24.
For the sequence DFIHRHCQDQNVPVENFFVKCNGA [SDE2], the protein stability index is, setting by setting: under setting [1], 2.83 ± 0.088; under setting [2], 2.95 ± 0.34.
The matching figures for DFSVSLKASGKNKHFKVQLVDNVY [NCK2]: 2.27 ± 0.25 and 2.25 ± 0.19.
The matching figures for DFYREDEDEEEEEGGEGEKEGEGE [TRIM55]: 5.57 ± 0.57 and 5.79 ± 0.084.
In the case of DGQYMGVAFRGLKGKKLYPVVSAV [SPSB1], the protein stability index runs as follows: under setting [1], 2.36 ± 0.55; under setting [2], 2.12 ± 0.48.
For DKDKSPESHKAKNESWIKSHFSRL [C10orf62] the same measures were 3.46 ± 0.25 and 3.48 ± 0.31.
The matching figures for DKLALCHLELTRKLQDLIKDVLRY [FCHO1]: 2.9 ± 0.48 and 2.74 ± 0.43.
Consider DLAGLGSETPKSQVGTLLFRSRSR [CDC25B], for which the protein stability index stood at 3.83 ± 0.35 under setting [1] and 4.11 ± 0.35 under setting [2].
In the case of DLAYQLQVAKTKQQIEEQRVQVQV [FLOT1], the protein stability index amounted to 3.4 ± 0.19 under setting [1] and 3.73 ± 0.22 under setting [2].
For DLDAKIREALVLRSVRVRLLLSFW [PLD5] the same measures were 3.52 ± 0.33 and 2.53 ± 0.86.
On to DLEAKEVTPRTALLTWTEPPVRPA [TNXB], for which the protein stability index is, setting by setting: under setting [1], 4.61 ± 0.14; under setting [2], 4.53 ± 0.23.
For DLHRQFPFHEMFVSRGGHGQQDLF [TBC1D10A] the same measures were 2.73 ± 0.17 and 2.8 ± 0.34.
